Laboratory results taken from article PMC9808734 (Nature Communications, 2023).

Target: HLA-A3 on CFPAC parental cells (Homo sapiens, HLA-A3 serotype, allele …, strain)

Binder | binding result
HLAA3_1 (VHH) VHH: EVQLVESGGGLVQPGGSLRLSCAASGFNVQGDGMHWVRQAPGKGLEWVAMVGPYSSYTYYADSVKGRFTISADTSKNTAYLQMNSLRAEDTAVYYCSRYSDGAFDYWGQGTLVTVSS | binds
HLAA3_2 (VHH) VHH: EVQLVESGGGLVQPGGSLRLSCAASGFNITKYSIHWVRQAPGKGLEWVAMVGPYSSYTYYADSVKGRFTISADTSKNTAYLQMNSLRAEDTAVYYCSRFYSSYAFDVWGQGTLVTVSS | binds
HLAA3_3 (VHH) VHH: EVQLVESGGGLVQPGGSLRLSCAASGFNIYSYAMHWVRQAPGKGLEWVASVAPGSGYTYYADSVKGRFTISADTSKNTAYLQMNSLRAEDTAVYYCSRNKYYTAYYMDYWGQGTLVTVSS | binds
HLAA3_4 (VHH) VHH: EVQLVESGGGLVQPGGSLRLSCAASGFNIYSYAMHWVRQAPGKGLEWVASFVPGSYATYYADSVKGRFTISADTSKNTAYLQMNSLRAEDTAVYYCSRGYYASYYFDVWGQGTLVTVSS | binds
HLAA3_5 (VHH) VHH: EVQLVESGGGLVQPGGSLRLSCAASGFNLSYYWMHWVRQAPGKGLEWVASIYPDGSYTWYADSVKGRFTISADTSKNTAYLQMNSLRAEDTAVYYCSRGTYFAMDYWGQGTLVTVSS | binds
HLAA3_6 (VHH) VHH: EVQLVESGGGLVQPGGSLRLSCAASGFNIFGYYMHWVRQAPGKGLEWVAVVSPGSGYTNYADSVKGRFTISADTSKNTAYLQMNSLRAEDTAVYYCSRALYSAYFAYWGQGTLVTVSS | binds
HLAA3_7 (VHH) VHH: EVQLVESGGGLVQPGGSLRLSCAASGFNVYYYWMHWVRQAPGKGLEWVASIYPDSDNTYYADSVKGRFTISADTSKNTAYLQMNSLRAEDTAVYYCSRGDYYYSYLDYWGQGTLVTVSS | binds
HLAA3_8 (VHH) VHH: EVQLVESGGGLVQPGGSLRLSCAASGFNIYSYYIHWVRQAPGKGLEWVAKIYPDSGYTYYADSVKGRFTISADTSKNTAYLQMNSLRAEDTAVYYCSRSFSRYGYMDYWGQGTLVTVSS | binds
HLAA3_9 (VHH) VHH: EVQLVESGGGLVQPGGSLRLSCAASGFNISTWLIHWVRQAPGKGLEWVAVVYPDSSYTYYADSVKGRFTISADTSKNTAYLQMNSLRAEDTAVYYCSRSWFSKSAMDYWGQGTLVTVSS | binds
HLAA3_10 (VHH) VHH: EVQLVESGGGLVQPGGSLRLSCAASGFNVYYSGMHWVRQAPGKGLEWVAKISPDSGSTYYADSVKGRFTISADTSKNTAYLQMNSLRAEDTAVYYCSRDMYSVRSAMDYWGQGTLVTVSS | binds
HLAA3_11 (VHH) VHH: EVQLVESGGGLVQPGGSLRLSCAASGFNIYSYGIHWVRQAPGKGLEWVAKVSPSSGYTYYADSVKGRFTISADTSKNTAYLQMNSLRAEDTAVYYCSRQYGYPYYFDYWGQGTLVTVSS | binds
